Data on 10 molecules can be found in patent publication US20170015742A1 (published 2017).

B1: CODV018 cross-over DVD-Ig (PR-1571831) (bispecific antibody, human IgG1, kappa, L234A L235A)
heavy: EFVLTQSPGTLSLSPGERATLSCERSSGDIGDSYVSWYQQKPGQAPRLVIYADDQRPSGIPDRFSGSGSGTDFTLTISRLEPEDFAVYYCQSYDINIDIVFGGGTKVEIKGGGSGGGDTVLTQSPATLSLSPGERATLSCRASESVSTHMHWYQQKPGQAPRLLIYGASNLESGVPARFSGSGSGTDFTLTISSLEPEDFAVYFCQQSWNDPFTFGQGTKLEIKGGGSGASTKGPSVFPLAPSSKSTSGGTAALGCLVKDYFPEPVTVSWNSGALTSGVHTFPAVLQSSGLYSLSSVVTVPSSSLGTQTYICNVNHKPSNTKVDKKVEPKSCDKTHTCPPCPAPEAAGGPSVFLFPPKPKDTLMISRTPEVTCVVVDVSHEDPEVKFNWYVDGVEVHNAKTKPREEQYNSTYRVVSVLTVLHQDWLNGKEYKCKVSNKALPAPIEKTISKAKGQPREPQVYTLPPSREEMTKNQVSLTCLVKGFYPSDIAVEWESNGQPENNYKTTPPVLDSDGSFFLYSKLTVDKSRWQQGNVFSCSVMHEALHNAYTQKSLSLSPGK
light: EVQLVQSGSELKKPGASVKVSCKASGYTFTNYGMYWVRQAPGQGLEWMGWINTETGKPTYADDFKGRFVFSLDTSVSTAYLQISSLKAEDTAVYYCARTNYYYRSYIFYFDYWGQGTMVTVSSGEVTLRESGPALVKPTQTLTLTCTFSGFSLSTYGMGVGWIRQPPGKALEWLANIWWDDDKYYNPSLKNRLTISKDTSKNQVVLTMTNMDPVDTATYYCARIESIGTTYSFDYWGQGTMVTVSSGGRTVAAPSVFIFPPSDEQLKSGTASVVCLLNNFYPREAKVQWKVDNALQSGNSQESVTEQDSKDSTYSLSSTLTLSKADYEKHKVYACEVTHQGLSSPVTKSFNRGEC
B2: CODV017 cross-over DVD-Ig (PR-1571830) (bispecific antibody, human IgG1, kappa, L234A L235A)
heavy: DTVLTQSPATLSLSPGERATLSCRASESVSTHMHWYQQKPGQAPRLLIYGASNLESGVPARFSGSGSGTDFTLTISSLEPEDFAVYFCQQSWNDPFTFGQGTKLEIKGGGSGGGEFVLTQSPGTLSLSPGERATLSCERSSGDIGDSYVSWYQQKPGQAPRLVIYADDQRPSGIPDRFSGSGSGTDFTLTISRLEPEDFAVYYCQSYDINIDIVFGGGTKVEIKGGGSGASTKGPSVFPLAPSSKSTSGGTAALGCLVKDYFPEPVTVSWNSGALTSGVHTFPAVLQSSGLYSLSSVVTVPSSSLGTQTYICNVNHKPSNTKVDKKVEPKSCDKTHTCPPCPAPEAAGGPSVFLFPPKPKDTLMISRTPEVTCVVVDVSHEDPEVKFNWYVDGVEVHNAKTKPREEQYNSTYRVVSVLTVLHQDWLNGKEYKCKVSNKALPAPIEKTISKAKGQPREPQVYTLPPSREEMTKNQVSLTCLVKGFYPSDIAVEWESNGQPENNYKTTPPVLDSDGSFFLYSKLTVDKSRWQQGNVFSCSVMHEALHNAYTQKSLSLSPGK
light: EVTLRESGPALVKPTQTLTLTCTFSGFSLSTYGMGVGWIRQPPGKALEWLANIWWDDDKYYNPSLKNRLTISKDTSKNQVVLTMTNMDPVDTATYYCARIESIGTTYSFDYWGQGTMVTVSSGEVQLVQSGSELKKPGASVKVSCKASGYTFTNYGMYWVRQAPGQGLEWMGWINTETGKPTYADDFKGRFVFSLDTSVSTAYLQISSLKAEDTAVYYCARTNYYYRSYIFYFDYWGQGTMVTVSSGGRTVAAPSVFIFPPSDEQLKSGTASVVCLLNNFYPREAKVQWKVDNALQSGNSQESVTEQDSKDSTYSLSSTLTLSKADYEKHKVYACEVTHQGLSSPVTKSFNRGEC
B3: DVD3904 DVD-Ig (PR-1565031) (bispecific antibody, human IgG1, kappa, L234A L235A)
heavy: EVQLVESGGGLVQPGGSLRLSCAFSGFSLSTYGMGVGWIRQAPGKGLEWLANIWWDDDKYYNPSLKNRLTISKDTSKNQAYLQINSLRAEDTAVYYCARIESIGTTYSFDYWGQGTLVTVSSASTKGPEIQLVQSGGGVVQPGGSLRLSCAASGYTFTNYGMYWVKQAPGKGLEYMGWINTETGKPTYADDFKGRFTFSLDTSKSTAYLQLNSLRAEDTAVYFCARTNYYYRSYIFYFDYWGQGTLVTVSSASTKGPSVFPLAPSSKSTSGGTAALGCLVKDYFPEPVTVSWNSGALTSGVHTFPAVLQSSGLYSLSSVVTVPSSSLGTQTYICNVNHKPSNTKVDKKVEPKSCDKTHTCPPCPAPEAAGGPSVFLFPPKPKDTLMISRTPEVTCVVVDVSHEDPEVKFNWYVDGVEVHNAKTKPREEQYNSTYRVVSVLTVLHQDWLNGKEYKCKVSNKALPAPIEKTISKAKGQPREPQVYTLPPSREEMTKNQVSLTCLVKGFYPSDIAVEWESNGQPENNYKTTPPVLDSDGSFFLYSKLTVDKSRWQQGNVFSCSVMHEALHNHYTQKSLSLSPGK
light: DFQLTQSPSSLSASVGDRVTITCERSSGDIGDSYVSWYQQKPGKAPKNVIYADDQRPSGVPSRFSGSGSGNSASLTISSLQPEDFATYFCQSYDINIDIVFGQGTKVEIKGTVAAPSVFIFPPDTVLTQSPSTLSASPGERATISCRASESVSTHMHWYQQKPGQAPKLLIYGASNLESGVPSRFSGSRSGTDFTLTISSLQPEDFAVYFCQQSWNDPFTFGQGTKVEIKRTVAAPSVFIFPPSDEQLKSGTASVVCLLNNFYPREAKVQWKVDNALQSGNSQESVTEQDSKDSTYSLSSTLTLSKADYEKHKVYACEVTHQGLSSPVTKSFNRGEC
B4: DVD3905 DVD-Ig (PR-1565032) (bispecific antibody, human IgG1, kappa, L234A L235A)
heavy: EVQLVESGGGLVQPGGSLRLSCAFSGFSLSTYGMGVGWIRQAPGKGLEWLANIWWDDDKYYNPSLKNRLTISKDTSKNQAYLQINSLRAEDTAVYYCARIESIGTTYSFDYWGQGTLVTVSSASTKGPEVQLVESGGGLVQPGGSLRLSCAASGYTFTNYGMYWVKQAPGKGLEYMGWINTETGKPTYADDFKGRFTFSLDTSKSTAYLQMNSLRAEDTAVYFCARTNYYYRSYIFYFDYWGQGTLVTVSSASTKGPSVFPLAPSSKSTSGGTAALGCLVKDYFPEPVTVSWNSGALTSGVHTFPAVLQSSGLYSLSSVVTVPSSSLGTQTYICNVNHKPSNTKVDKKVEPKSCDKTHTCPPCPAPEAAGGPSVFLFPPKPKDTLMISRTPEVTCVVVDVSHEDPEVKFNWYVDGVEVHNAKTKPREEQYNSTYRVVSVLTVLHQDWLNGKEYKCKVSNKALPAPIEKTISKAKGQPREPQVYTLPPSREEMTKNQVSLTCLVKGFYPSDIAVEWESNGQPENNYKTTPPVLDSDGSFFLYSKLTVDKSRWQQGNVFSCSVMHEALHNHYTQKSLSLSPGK
light: B3 light with V126Q, T133S, P138V, E140D, A142V, Q165K, R189G, V208T
B5: CODV012 cross-over DVD-Ig (PR-1571824) (bispecific antibody, human IgG1, kappa, L234A L235A)
heavy: EVQLVQSGSELKKPGASVKVSCKASGYTFTNYGMYWVRQAPGQGLEWMGWINTETGKPTYADDFKGRFVFSLDTSVSTAYLQISSLKAEDTAVYYCARTNYYYRSYIFYFDYWGQGTMVTVSSGGGGSGGGEFVLTQSPGTLSLSPGERATLSCERSSGDIGDSYVSWYQQKPGQAPRLVIYADDQRPSGIPDRFSGSGSGTDFTLTISRLEPEDFAVYYCQSYDINIDIVFGGGTKVEIKGGGSGASTKGPSVFPLAPSSKSTSGGTAALGCLVKDYFPEPVTVSWNSGALTSGVHTFPAVLQSSGLYSLSSVVTVPSSSLGTQTYICNVNHKPSNTKVDKKVEPKSCDKTHTCPPCPAPEAAGGPSVFLFPPKPKDTLMISRTPEVTCVVVDVSHEDPEVKFNWYVDGVEVHNAKTKPREEQYNSTYRVVSVLTVLHQDWLNGKEYKCKVSNKALPAPIEKTISKAKGQPREPQVYTLPPSREEMTKNQVSLTCLVKGFYPSDIAVEWESNGQPENNYKTTPPVLDSDGSFFLYSKLTVDKSRWQQGNVFSCSVMHEALHNAYTQKSLSLSPGK
light: EVTLRESGPALVKPTQTLTLTCTFSGFSLSTYGMGVGWIRQPPGKALEWLANIWWDDDKYYNPSLKNRLTISKDTSKNQVVLTMTNMDPVDTATYYCARIESIGTTYSFDYWGQGTMVTVSSGGGGSGGGDTVLTQSPATLSLSPGERATLSCRASESVSTHMHWYQQKPGQAPRLLIYGASNLESGVPARFSGSGSGTDFTLTISSLEPEDFAVYFCQQSWNDPFTFGQGTKLEIKGGGSGRTVAAPSVFIFPPSDEQLKSGTASVVCLLNNFYPREAKVQWKVDNALQSGNSQESVTEQDSKDSTYSLSSTLTLSKADYEKHKVYACEVTHQGLSSPVTKSFNRGEC
B6: CODV013 cross-over DVD-Ig (PR-1571825) (bispecific antibody, human IgG1, kappa, L234A L235A)
heavy: EVQLVQSGSELKKPGASVKVSCKASGYTFTNYGMYWVRQAPGQGLEWMGWINTETGKPTYADDFKGRFVFSLDTSVSTAYLQISSLKAEDTAVYYCARTNYYYRSYIFYFDYWGQGTMVTVSSGGGGSGGGEFVLTQSPGTLSLSPGERATLSCERSSGDIGDSYVSWYQQKPGQAPRLVIYADDQRPSGIPDRFSGSGSGTDFTLTISRLEPEDFAVYYCQSYDINIDIVFGGGTKVEIKGGSASTKGPSVFPLAPSSKSTSGGTAALGCLVKDYFPEPVTVSWNSGALTSGVHTFPAVLQSSGLYSLSSVVTVPSSSLGTQTYICNVNHKPSNTKVDKKVEPKSCDKTHTCPPCPAPEAAGGPSVFLFPPKPKDTLMISRTPEVTCVVVDVSHEDPEVKFNWYVDGVEVHNAKTKPREEQYNSTYRVVSVLTVLHQDWLNGKEYKCKVSNKALPAPIEKTISKAKGQPREPQVYTLPPSREEMTKNQVSLTCLVKGFYPSDIAVEWESNGQPENNYKTTPPVLDSDGSFFLYSKLTVDKSRWQQGNVFSCSVMHEALHNAYTQKSLSLSPGK
light: B5 light
B7: CODV022 cross-over DVD-Ig (PR-1577056) (bispecific antibody, human IgG1, kappa, L234A L235A)
heavy: B5 heavy with D163E
light: EVTLRESGPALVKPTQTLTLTCTFSGFSLSTYGMGVGWIRQPPGKALEWLANIWWDDDKYYNPSLKNRLTISKDTSKNQVVLTMTNMDPVDTATYYCARIESIGTTYSFDYWGQGTMVTVSSGGGGSDTVLTQSPATLSLSPGERATLSCRASESVSTHMHWYQQKPGQAPRLLIYGASNLESGVPARFSGSGSGTDFTLTISSLEPEDFAVYFCQQSWNDPFTFGQGTKLEIKGGSRTVAAPSVFIFPPSDEQLKSGTASVVCLLNNFYPREAKVQWKVDNALQSGNSQESVTEQDSKDSTYSLSSTLTLSKADYEKHKVYACEVTHQGLSSPVTKSFNRGEC
B8: CODV021 cross-over DVD-Ig (PR-1577053) (bispecific antibody, human IgG1, kappa, L234A L235A)
heavy: B5 heavy with D163E
light: EVTLRESGPALVKPTQTLTLTCTFSGFSLSTYGMGVGWIRQPPGKALEWLANIWWDDDKYYNPSLKNRLTISKDTSKNQVVLTMTNMDPVDTATYYCARIESIGTTYSFDYWGQGTMVTVSSGGGGSGGGDTVLTQSPATLSLSPGERATLSCRASESVSTHMHWYQQKPGQAPRLLIYGASNLESGVPARFSGSGSGTDFTLTISSLEPEDFAVYFCQQSWNDPFTFGQGTKLEIKGGSRTVAAPSVFIFPPSDEQLKSGTASVVCLLNNFYPREAKVQWKVDNALQSGNSQESVTEQDSKDSTYSLSSTLTLSKADYEKHKVYACEVTHQGLSSPVTKSFNRGEC
B9: CODV014 cross-over DVD-Ig (PR-1571826) (bispecific antibody, human IgG1, kappa, L234A L235A)
heavy: EVQLVQSGSELKKPGASVKVSCKASGYTFTNYGMYWVRQAPGQGLEWMGWINTETGKPTYADDFKGRFVFSLDTSVSTAYLQISSLKAEDTAVYYCARTNYYYRSYIFYFDYWGQGTMVTVSSGGGGSEFVLTQSPGTLSLSPGERATLSCERSSGDIGDSYVSWYQQKPGQAPRLVIYADDQRPSGIPDRFSGSGSGTDFTLTISRLEPEDFAVYYCQSYDINIDIVFGGGTKVEIKGGSASTKGPSVFPLAPSSKSTSGGTAALGCLVKDYFPEPVTVSWNSGALTSGVHTFPAVLQSSGLYSLSSVVTVPSSSLGTQTYICNVNHKPSNTKVDKKVEPKSCDKTHTCPPCPAPEAAGGPSVFLFPPKPKDTLMISRTPEVTCVVVDVSHEDPEVKFNWYVDGVEVHNAKTKPREEQYNSTYRVVSVLTVLHQDWLNGKEYKCKVSNKALPAPIEKTISKAKGQPREPQVYTLPPSREEMTKNQVSLTCLVKGFYPSDIAVEWESNGQPENNYKTTPPVLDSDGSFFLYSKLTVDKSRWQQGNVFSCSVMHEALHNAYTQKSLSLSPGK
light: B5 light
B10: DVD3906 DVD-Ig (PR-1565035) (bispecific antibody, human IgG1, kappa, L234A L235A)
heavy: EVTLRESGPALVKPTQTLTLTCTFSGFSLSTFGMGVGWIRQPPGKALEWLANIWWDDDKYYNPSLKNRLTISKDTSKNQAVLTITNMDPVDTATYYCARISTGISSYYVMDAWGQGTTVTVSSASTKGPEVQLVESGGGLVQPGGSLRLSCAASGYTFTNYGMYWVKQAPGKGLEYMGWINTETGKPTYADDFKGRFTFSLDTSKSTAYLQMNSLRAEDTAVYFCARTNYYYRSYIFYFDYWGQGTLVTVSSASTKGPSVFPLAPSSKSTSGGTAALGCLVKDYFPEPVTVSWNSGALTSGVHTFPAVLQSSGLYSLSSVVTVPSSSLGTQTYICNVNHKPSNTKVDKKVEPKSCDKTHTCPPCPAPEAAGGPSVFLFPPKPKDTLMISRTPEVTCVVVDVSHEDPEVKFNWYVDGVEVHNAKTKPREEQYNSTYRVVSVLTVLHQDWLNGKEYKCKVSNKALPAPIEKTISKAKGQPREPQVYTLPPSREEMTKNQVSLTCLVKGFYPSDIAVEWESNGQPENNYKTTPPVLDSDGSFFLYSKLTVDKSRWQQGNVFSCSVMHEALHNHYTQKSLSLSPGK
light: DFQLTQSPSSLSASVGDRVTITCERSSGDIGDTYVSWYQQKPGKAPKNVIYGNDQRPSGVPSRFSGSGSGNSATLTISSLQPEDFATYFCQSYDSDIDIVFGQGTKVEIKGTVAAPSVFIFPPDTQLTQSPSSLSASVGDRVTISCRASESVSTHMHWYQQKPGKAPKLLIYGASNLESGVPSRFSGSGSGTDFTLTISSLQPEDFATYFCQQSWNDPFTFGQGTKVEIKRTVAAPSVFIFPPSDEQLKSGTASVVCLLNNFYPREAKVQWKVDNALQSGNSQESVTEQDSKDSTYSLSSTLTLSKADYEKHKVYACEVTHQGLSSPVTKSFNRGEC

Substitutions are numbered along the chain they refer to. A value given as a limit tells only on which side of the number the result lay.

recombinant human PDGF-BB, sequence (P01127 82-190 limits assumed): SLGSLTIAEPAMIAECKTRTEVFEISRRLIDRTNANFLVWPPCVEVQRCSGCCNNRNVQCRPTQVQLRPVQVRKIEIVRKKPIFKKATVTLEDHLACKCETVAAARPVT

The assay addresses recombinant human PDGF-BB (human, UniProt P01127 82-190). Description: cell-based or functional assay.
In the case of B1, the “NIH-3T3 hPDGF-BB Potency IC50” value is over 5 nM.

Turning to B2, the “NIH-3T3 hPDGF-BB Potency IC50” value is over 5 nM.

As to B3, the “NIH-3T3 hPDGF-BB Potency IC50” value was over 5 nM.

B4: the “NIH-3T3 hPDGF-BB Potency IC50” value was over 5 nM.

As for B5, the “NIH-3T3 hPDGF-BB Potency IC50” value worked out at 0.182 nM.

In the case of B6, the “NIH-3T3 hPDGF-BB Potency IC50” value is 0.11 nM.

With B7, the “NIH-3T3 hPDGF-BB Potency IC50” value turned out to be 0.059 nM.

With B8, the “NIH-3T3 hPDGF-BB Potency IC50” value turned out to be 0.056 nM.

On to B9, for which the “NIH-3T3 hPDGF-BB Potency IC50” value was found to be 0.469 nM.

For B10, the “NIH-3T3 hPDGF-BB Potency IC50” value was over 5 nM.
